Experimental data as given in patent US20220144932A1.

Assays:
[1] = target: Recombinant FAM19A5 rabbit Fc fusion protein (human; rabbit) (UniProt Q7Z5A7); experiment: flow cytometry, blocking: FAM19A5-rFc (1 µM) with scFv-Cκ (5 µM) on mouse primary glial cells; blocked: binding of FAM19A5-rFc to the cells
[2] = target: Recombinant FAM19A5 rabbit Fc fusion protein (human; rabbit) (UniProt Q7Z5A7); experiment: flow cytometry, blocking: FAM19A5-rFc (1 µM) with scFv-Cκ (5 µM) on human glioblastoma cell line U87MG; blocked: binding of FAM19A5-rFc to the cells

percent reduction of MFI [1]: 88.9% | percent reduction of MFI [2]: 69.6%
B1: 2-13 anti-FAM19A5 scFv human Cκ fusion protein (scFv, not shown: a dimerising Fc or GST)
scFv: ALTQPSSVSANPGETVKITCSGGSYSYGWFQQKSPGSALVTVIYWDDERPSDIPSRFSGALSGSTNTLTITGVQADDEAVYFCGTEDISGTAGVFGAGTTLTVLGQSSRSSGGGGSSGGGGSAVTLDESGGGLQTPGGALSLVCKASGFTFSSHGMFWVRQTPGKGLEYVAEITNDGSGTNYGSAVKGRATISRDNGQSTVRLQLNNLRAEDTGTYFCARSTYECPGGFSCWGDTGQIDAWGHGTEVIVSS
